Experimental data as given in publication PMC7470945, “DNA backbone interactions impact the sequence specificity of DNA sulfur-binding domains: revelations from structural analyses”.

T1: SBDSco E156Q (Streptomyces coelicolor, UniProt Q9L0M9 90-250, E156Q)
T1 sequence: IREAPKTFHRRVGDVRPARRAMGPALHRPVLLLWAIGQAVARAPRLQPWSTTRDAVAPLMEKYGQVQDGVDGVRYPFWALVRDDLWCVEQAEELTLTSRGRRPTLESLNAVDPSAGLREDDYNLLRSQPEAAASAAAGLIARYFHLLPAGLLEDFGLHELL

T2: SBDSco E156L (Streptomyces coelicolor, UniProt Q9L0M9 90-250, E156L)
T2 sequence: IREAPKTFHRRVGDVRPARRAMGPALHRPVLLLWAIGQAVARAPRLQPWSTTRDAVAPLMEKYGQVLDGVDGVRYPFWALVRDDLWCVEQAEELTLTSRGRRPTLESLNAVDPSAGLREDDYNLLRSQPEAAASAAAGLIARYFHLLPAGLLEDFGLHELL

T3: SBDSco E156R/D157R (Streptomyces coelicolor, UniProt Q9L0M9 90-250, E156R;D157R)
T3 sequence: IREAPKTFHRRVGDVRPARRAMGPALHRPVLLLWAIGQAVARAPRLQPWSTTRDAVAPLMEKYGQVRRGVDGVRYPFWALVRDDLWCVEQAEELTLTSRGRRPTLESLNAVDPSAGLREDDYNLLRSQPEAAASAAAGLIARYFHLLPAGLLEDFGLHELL

T4: SBDSco (SBD of ScoMcrA) (Streptomyces coelicolor, UniProt Q9L0M9 90-250)
T4 sequence: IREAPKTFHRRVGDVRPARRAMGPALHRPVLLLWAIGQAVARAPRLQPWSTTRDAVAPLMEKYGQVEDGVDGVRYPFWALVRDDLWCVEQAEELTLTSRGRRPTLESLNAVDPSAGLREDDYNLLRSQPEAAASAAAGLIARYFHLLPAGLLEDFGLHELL

T5: SBDSco E156D (Streptomyces coelicolor, UniProt Q9L0M9 90-250, E156D)
T5 sequence: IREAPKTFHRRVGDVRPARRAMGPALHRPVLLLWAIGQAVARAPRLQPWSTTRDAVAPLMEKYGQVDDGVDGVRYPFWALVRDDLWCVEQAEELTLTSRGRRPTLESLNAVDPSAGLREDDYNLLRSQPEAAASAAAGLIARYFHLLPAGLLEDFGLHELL

T6: SBDSco E156K (Streptomyces coelicolor, UniProt Q9L0M9 90-250, E156K)
T6 sequence: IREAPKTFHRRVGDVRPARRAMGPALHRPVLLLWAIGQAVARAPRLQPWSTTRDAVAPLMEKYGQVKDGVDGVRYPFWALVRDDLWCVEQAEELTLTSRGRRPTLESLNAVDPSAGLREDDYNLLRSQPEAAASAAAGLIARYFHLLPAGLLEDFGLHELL

T7: SBDSco E156R (Streptomyces coelicolor, UniProt Q9L0M9 90-250, E156R)
T7 sequence: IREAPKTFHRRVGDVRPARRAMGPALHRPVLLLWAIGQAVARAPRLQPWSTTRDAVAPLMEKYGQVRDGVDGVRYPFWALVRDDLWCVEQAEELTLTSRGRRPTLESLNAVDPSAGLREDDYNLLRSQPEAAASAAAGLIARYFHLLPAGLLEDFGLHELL

B1: PT-GATC-10 SP (hemi-PT) (dsDNA)
DNA 1: GATGATCCTA
DNA 2: TAGGATCATC
modifications: SP phosphorothioate between G4 and A5 of strand 1
B2: PT-CCA-10 RP (hemi-PT) (dsDNA)
DNA 1: GAACCCAAGC
DNA 2: GCTTGGGTTC
modifications: RP phosphorothioate between C5 and C6 of strand 1
B3: PT-GAAC-10 RP (hemi-PT) (dsDNA)
DNA 1: GGCGAACGTG
DNA 2: CACGTTCGCC
modifications: RP phosphorothioate between G4 and A5 of strand 1
B4: PT-GATC-10 RP (hemi-PT) (dsDNA)
DNA 1: GATGATCCTA
DNA 2: TAGGATCATC
modifications: RP phosphorothioate between G4 and A5 of strand 1
B5: PT-CCA-10 SP (hemi-PT) (dsDNA)
DNA 1: GAACCCAAGC
DNA 2: GCTTGGGTTC
modifications: SP phosphorothioate between C5 and C6 of strand 1

Key:
Experiment in all cases: fluorescence polarization; FP: 20 mM Tris-HCl pH 8.0, 50 mM NaCl, 5% glycerol, 1 mM DTT, 5 nM probe, room temperature; EMSA: 20 mM Tris-HCl pH 8.0, 100 mM NaCl, 5% glycerol, room temperature, protein 4x DNA
SBDSpr (SBD of SprMcrA) = SBDSpr (SBD of SprMcrA) (Streptomyces pristinaespiralis, UniProt A0A0M4DML1 1-165); conditions: protein: recombinant, tags: N-terminal 6xHis (pET28a), blunt; for binding result: label: 5'-FAM on one strand; for Kd: label: 5'-FAM on one strand (FP)
SBDSco E156Q = target: T1, SBDSco E156Q; conditions: protein: recombinant; tags: 6xHis; label: 5'-FAM on one strand (FP); blunt
SBDSco E156L = target: T2, SBDSco E156L; conditions: protein: recombinant; tags: 6xHis; label: 5'-FAM on one strand (FP); blunt
SBDSco E156R/D157R = target: T3, SBDSco E156R/D157R; conditions: protein: recombinant; tags: 6xHis; label: 5'-FAM on one strand (FP); blunt
SBDSco (SBD of ScoMcrA) = target: T4, SBDSco (SBD of ScoMcrA); conditions: protein: recombinant; tags: N-terminal 6xHis (pET28a); label: 5'-FAM on one strand (FP); blunt
SBDSco E156D = target: T5, SBDSco E156D; conditions: protein: recombinant; tags: 6xHis; label: 5'-FAM on one strand (FP); blunt
SBDSco E156K = target: T6, SBDSco E156K; conditions: protein: recombinant; tags: 6xHis; label: 5'-FAM on one strand (FP); blunt
SBDSco E156R = target: T7, SBDSco E156R; conditions: protein: recombinant; tags: 6xHis; label: 5'-FAM on one strand (FP); blunt

| Binder | binding result (SBDSpr (SBD of SprMcrA)) | Kd (SBDSco E156Q) [nM] | Kd (SBDSco E156L) [nM] | Kd (SBDSpr (SBD of SprMcrA)) [nM] | Kd (SBDSco E156R/D157R) [nM] | Kd (SBDSco (SBD of ScoMcrA)) [nM] | Kd (SBDSco E156D) [nM] | Kd (SBDSco E156K) [nM] | Kd (SBDSco E156R) [nM] |
| --- | --- | --- | --- | --- | --- | --- | --- | --- | --- |
| B1 | no binding | – | – | – | – | – | – | – | – |
| B2 | no binding | – | – | – | – | – | – | – | – |
| B3 | – | 618 ± 43 | 499 ± 37 | 95 ± 25 | 183 ± 9 | 567 ± 37 | 846 ± 74 | 297 ± 19 | 267 ± 15 |
| B4 | – | 1020 ± 49 | 791 ± 42 | 38 ± 8 | 192 ± 12 | 1090 ± 58 | 1320 ± 99 | 370 ± 14 | 346 ± 17 |
| B5 | no binding | – | – | – | – | – | – | – | – |
